Test results published in patent publication US20190085043A1, “FUSION PROTEINS FOR TREATING A METABOLIC SYNDROME” (SANOFI, priority 2012, published 2019).

What was measured:
human FGFR1c plus KLB = human FGFR1c plus KLB (Homo sapiens, UniProt P11362+Q86Z14); assay: FGF-21 receptor autophosphorylation In-Cell Western (pFGFR ICW) in CHO cells; assay type: cell-based; details: CHO cells overexpressing human FGFR1c plus KLB, FGFR autophosphorylation
Method: FIG. 1B-1 to FIG. 1B-4) The FGF induced FGFR autophosphorylation was measured via a specific and highly sensitive In-Cell Western (ICW) in CHO cells stably overexpressing human FGFR1c together with human betaKlotho (KLB). In-Cell Western assay is an immunocytochemical assay usually performed in microplate format. Target-specific primary antibodies and infrared-labelled secondary antibodies are used to detect target proteins in fixed cells, and fluorescent signal from each well is quantified (e.g. the In-Cell Western assay from LI-COR Biosciences, USA).
The cellular efficacy of FGF-21 or FGF-21 fusion proteins was measured using a specific and highly sensitive In-Cell Western (ICW) assay. The ICW assay is an immunocytochemical assay usually performed in microplate format.
(§1) CHO Flp-In cells (Invitrogen, Darmstadt, Germany) stable expressing the human FGFR1c together with human beta-Klotho (KLB) were used for FGF-21 receptor autophosphorylation assay using In-Cell Western. In order to determine the receptor autophosphorylation level, 2×10^4 cells/well were seeded into 96-well plates and grown for 48 h. […] Subsequently cells were washed again with PBS+0.1% Tween20 and infrared dye signals were quantified with an Odyssey imager (LICOR, Bad Homburg, Germany). Results were normalized by quantification of DNA with TO-PRO3 dye (Invitrogen, Karlsruhe, Germany). […]

MAP kinase ERK1/2 = assay: ERK1/2 phosphorylation In-Cell Western (pERK ICW) in CHO cells overexpressing human FGFR1c plus KLB; assay type: cell-based; details: ERK1/2 phosphorylation Thr202/Tyr204
Method: FIG. 1C-1 to FIG. 1C-3) Dose dependent in vitro activation of the downstream effector ERK. Activation of the downstream effector of FGF signaling, the MAP kinase ERK1/2, was determined via In-Cell Western assay in CHO cells stably overexpressing human FGFR1c and KLB using an antibody directed against the ERK1/2 phosphorylated amino acid residues threonine 202 and tyrosine 204.
as §1, with “h. Cells were serum starved with serum-free medium Ham's F-12 Nutrient Mix with GlutaMAX (Gibco, Darmstadt, Germany) for 3-4 h.” for “h.”
To assess the activation of a downstream effector of FGFR signalling by FGF-21-GLP-1RA fusion proteins the phosphorylation of MAP kinases ERK1/2 were analysed. […]

human FGFR1c plus KLB, sequence (P11362 22-822): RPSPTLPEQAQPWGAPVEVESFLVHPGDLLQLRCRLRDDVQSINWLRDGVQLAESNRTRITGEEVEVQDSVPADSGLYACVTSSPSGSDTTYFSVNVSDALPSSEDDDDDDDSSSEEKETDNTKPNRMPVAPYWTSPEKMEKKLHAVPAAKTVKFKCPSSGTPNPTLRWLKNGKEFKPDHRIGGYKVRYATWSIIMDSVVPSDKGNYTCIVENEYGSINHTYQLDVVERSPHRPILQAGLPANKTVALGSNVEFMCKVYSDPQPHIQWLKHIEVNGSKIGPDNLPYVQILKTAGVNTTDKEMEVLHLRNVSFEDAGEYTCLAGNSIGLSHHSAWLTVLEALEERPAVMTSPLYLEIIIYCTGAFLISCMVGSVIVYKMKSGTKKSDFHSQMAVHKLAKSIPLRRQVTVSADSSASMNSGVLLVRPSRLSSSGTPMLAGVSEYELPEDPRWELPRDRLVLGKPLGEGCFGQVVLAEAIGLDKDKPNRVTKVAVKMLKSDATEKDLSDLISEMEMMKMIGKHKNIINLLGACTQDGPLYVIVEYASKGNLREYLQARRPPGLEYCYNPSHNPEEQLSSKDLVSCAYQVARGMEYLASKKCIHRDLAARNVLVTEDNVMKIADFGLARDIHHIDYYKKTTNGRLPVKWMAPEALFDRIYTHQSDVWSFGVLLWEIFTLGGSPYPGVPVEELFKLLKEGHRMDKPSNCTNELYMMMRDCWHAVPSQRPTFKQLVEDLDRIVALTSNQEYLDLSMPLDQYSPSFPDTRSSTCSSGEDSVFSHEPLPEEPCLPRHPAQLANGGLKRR
human FGFR1c plus KLB, sequence (Q86Z14 whole entry): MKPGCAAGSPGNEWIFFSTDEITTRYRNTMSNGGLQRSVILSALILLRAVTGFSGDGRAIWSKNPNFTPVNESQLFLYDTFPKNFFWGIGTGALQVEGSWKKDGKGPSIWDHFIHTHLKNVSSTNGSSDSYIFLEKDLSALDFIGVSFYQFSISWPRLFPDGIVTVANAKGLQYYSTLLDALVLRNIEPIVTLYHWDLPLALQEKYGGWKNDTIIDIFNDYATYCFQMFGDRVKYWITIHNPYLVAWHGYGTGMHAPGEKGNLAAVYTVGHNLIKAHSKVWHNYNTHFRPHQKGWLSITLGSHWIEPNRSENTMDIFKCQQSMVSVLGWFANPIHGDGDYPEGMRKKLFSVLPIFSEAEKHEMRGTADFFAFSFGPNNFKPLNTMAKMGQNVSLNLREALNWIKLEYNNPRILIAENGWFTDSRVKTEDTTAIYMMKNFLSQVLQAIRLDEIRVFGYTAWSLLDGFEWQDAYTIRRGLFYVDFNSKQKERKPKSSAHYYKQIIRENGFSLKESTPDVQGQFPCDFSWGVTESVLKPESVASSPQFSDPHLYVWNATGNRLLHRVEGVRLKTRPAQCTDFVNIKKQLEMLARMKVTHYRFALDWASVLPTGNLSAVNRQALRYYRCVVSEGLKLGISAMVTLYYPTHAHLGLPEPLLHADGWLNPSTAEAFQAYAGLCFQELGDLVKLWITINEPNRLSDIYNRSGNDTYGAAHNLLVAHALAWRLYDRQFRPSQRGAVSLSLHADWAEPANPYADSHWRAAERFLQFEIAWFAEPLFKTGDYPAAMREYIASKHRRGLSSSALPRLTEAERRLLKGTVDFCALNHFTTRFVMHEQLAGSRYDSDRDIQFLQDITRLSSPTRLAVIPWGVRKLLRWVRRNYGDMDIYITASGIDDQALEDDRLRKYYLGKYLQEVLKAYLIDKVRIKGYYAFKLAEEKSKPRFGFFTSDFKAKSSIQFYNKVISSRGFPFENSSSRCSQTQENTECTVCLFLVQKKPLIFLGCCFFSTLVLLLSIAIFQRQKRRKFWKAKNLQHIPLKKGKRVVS

B1: FGF21 wild type: Native Human FGF-21 without signal sequence (protein)
chain: HPIPDSSPLLQPGGQVRQRYLYTDDAQQTEAHLEIREDGTVGGAADQSPESLLQLKALKPGVIQILGVKTSRFLCQRPDGALYGSLHFDPEACSFRELLLEDGYNVYQSEAHGLPLHLPGNKSPHRDPAPRGPARFLPLPGLPPAPPEPPGILAPQPPDVGSSDPLSMVGPSQGRSPSYAS
modifications: FGF-21 mutein H29-S209
In the case of B1, the EC50 (human FGFR1c plus KLB) is reported as 4.3 nM and the EC50 (MAP kinase ERK1/2) is reported as 0.135 nM.
